Consider 80 sequences from the supplement of paper PMC10724198.

± gives the standard deviation of the averaged measurements.
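Note: PSI is a weighted mean of sequencing reads over stability bins, variants kept only with over 10 reads, mCherry proximal and sfGFP distal, peptide attached via GGGS linker.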

The data set has as its system Saccharomyces cerevisiae. The data set is described as follows: protein stability index of tFT-peptide fusion (C-terminal peptide) (PSI (0-1 scale)); higher = more stable (slower turnover). Particulars: genetic background: wild type; temperature: 30 C.
The sequence SVMFSSLTRPPL registered a protein stability index of 0.65 ± 0.11.
SVPGLELGLPLR displayed a protein stability index of 0.675 ± 0.061.
In turn, SVPRPPPPRAPL gave a protein stability index of 0.646 ± 0.17.
In the case of SVRCPPLSPRPP, the protein stability index worked out at 0.667 ± 0.036.
Regarding SVRLTYQNIIVN, the protein stability index was found to be 0.583 ± 0.02.
For SVSRGAPSGSLG, the protein stability index is 0.688 ± 0.067.
Take SVSRGSWVWGRL: the protein stability index came out at 0.723 ± 0.061.
Sequence SVTTNDQLPCHS came in with a protein stability index of 0.691 ± 0.026.
SVVGHGVCGGRG showed a protein stability index of 0.649 ± 0.11.
Turning to SVVSSDVGGGRI, the protein stability index is 0.5391 ± 0.0047.
Regarding SVYGIASRAQLL, the protein stability index turned out to be 0.64 ± 0.11.
SWCRCLALLDCT yielded a protein stability index of 0.659 ± 0.028.
As to SWGGGGGGAGRG, the protein stability index came out at 0.653 ± 0.017.
In turn, SWPLIFSLPNFI had a protein stability index of 0.716 ± 0.026.
Sequence SWPMLSVLADER yielded a protein stability index of 0.717 ± 0.04.
As to SWPPCPSGRGRG, the protein stability index came out at 0.727 ± 0.029.
In turn, SWPTRRLVVHGL had a protein stability index of 0.655 ± 0.0071.
On to SWRRRNGNCERR, for which the protein stability index worked out at 0.646 ± 0.063.
SYDNPPDTSRPR: the protein stability index turned out to be 0.768 ± 0.046.
For SYFVIPGLSLSV, the protein stability index was 0.568 ± 0.056.
SYGADSVSYLKT displayed a protein stability index of 0.651 ± 0.033.
On to SYGPKMAKAVFR, for which the protein stability index came to 0.706 ± 0.056.
In the case of SYKAFVFSSDVW, the protein stability index is 0.77 ± 0.045.
On to SYKIDYIDIRVG, for which the protein stability index came out at 0.59 ± 0.029.
With SYLHALSRPSLL, the protein stability index came to 0.734 ± 0.03.
For SYLPLGTVLMLG the value was 0.681 ± 0.032.
On to SYPDYFDSDSSD, for which the protein stability index came out at 0.716 ± 0.011.
On to SYSPPPLPPHPP, for which the protein stability index came out at 0.55109 ± 0.00031.
As for SYTAPPLLRSSY, the protein stability index turned out to be 0.679 ± 0.015.
Regarding TAQKHQQPVQLH, the protein stability index was 0.715 ± 0.028.
On to TARDLEGTRAKG, for which the protein stability index was determined as 0.638 ± 0.028.
The sequence TASAAKGAAPQQ gave a protein stability index of 0.676 ± 0.016.
In turn, TASFVSSGLLAF registered a protein stability index of 0.586 ± 0.012.
TASLQGCANGQS gave a protein stability index of 0.674 ± 0.012.
Turning to TAVPRARRRVVR, the protein stability index was found to be 0.712 ± 0.018.
For the sequence TCLMLSCRSFLW, the protein stability index was found to be 0.63 ± 0.018.
In the case of TDFRSGLIFIIV, the protein stability index worked out at 0.544 ± 0.045.
For TDLGYGRLGGWV the value was 0.682 ± 0.083; for TEIKILNKKKSR, 0.7294 ± 0.0043; for TELSLHFAGYAE, 0.74 ± 0.031.
For TERGRLVWYCMR the value was 0.674 ± 0.077; for TETAHNFPYCCD, 0.676 ± 0.025.
For TEVRHMKGVAWW the value was 0.6919 ± 0.0044; for TFENLFRLPWFK, 0.699 ± 0.052.
In turn, TFLYLSGRVVGL returned a protein stability index of 0.651 ± 0.013.
TFPGRLPLTRLP: the protein stability index was found to be 0.726 ± 0.038.
Sequence TFPPLSPSPPLS gave a protein stability index of 0.727 ± 0.13.
The sequence TFSVPLPPPLAP showed a protein stability index of 0.6573 ± 0.0038.
The sequence TFVVGTRVFSCD displayed a protein stability index of 0.631 ± 0.096.
For TFYLHSLLPTSF the value was 0.6913 ± 0.0024; for TGCGSRSSRTKT, 0.864 ± 0.021.
In the case of TGCRAVPDLNAD, the protein stability index amounted to 0.695 ± 0.018.
The sequence TGIGPWVSPSIC had a protein stability index of 0.667 ± 0.018.
Sequence TGISPWPPSERR showed a protein stability index of 0.808 ± 0.19.
For TGLYLRCVWGVQ, the protein stability index amounted to 0.507 ± 0.046.
In turn, TGNARCYFGKSV registered a protein stability index of 0.692 ± 0.011.
For TGNQCGNGYSWR, the protein stability index turned out to be 0.696 ± 0.013.
In turn, TGPIIPSDNRFL showed a protein stability index of 0.692 ± 0.04.
Turning to TGRGGAPRAKEE, the protein stability index is 0.699 ± 0.0039.
TGSLSSTCPPAT came in with a protein stability index of 0.717 ± 0.075.
THHPQRPPRTLP: the protein stability index was found to be 0.745 ± 0.062.
Regarding THHSDLHPRTAP, the protein stability index amounted to 0.697 ± 0.033.
Regarding THLDKLYPKEHT, the protein stability index was 0.689 ± 0.054.
THPPLPPYLSPP had a protein stability index of 0.727 ± 0.015.
The sequence THYKLFGSLNLL yielded a protein stability index of 0.634 ± 0.035.
TIPSHPLLPTLC came in with a protein stability index of 0.648 ± 0.049.
Sequence TISFASLLPPPF had a protein stability index of 0.723 ± 0.048.
Sequence TISHPLGPFSVH yielded a protein stability index of 0.66 ± 0.042.
In turn, TIVRTTLLEIWR registered a protein stability index of 0.619 ± 0.04.
On to TKKDNKYNRNKK, for which the protein stability index was found to be 0.656 ± 0.029.
For TKKKPGEPGKRK the value was 0.666 ± 0.013.
TKLRHHKTQIVD gave a protein stability index of 0.652 ± 0.059.
TKNNYKKKKTKT: the protein stability index is 0.682 ± 0.029.
In the case of TKNTEGVKNSLF, the protein stability index is 0.64 ± 0.096.
TLAPPSRATPPP displayed a protein stability index of 0.648 ± 0.041.
TLCITHARCFVK showed a protein stability index of 0.63 ± 0.0069.
For TLGLDPCCSYSR the value was 0.752 ± 0.15.
TLLCGDASVLTA: the protein stability index was 0.658 ± 0.071.
As to TLPRSLGPSSPA, the protein stability index came out at 0.753 ± 0.076.
For TLPVKAGHWRLG the value was 0.73084 ± 0.00065.
